{
  "source": "paper PMC12310515",
  "target": "RBK21 variable region (residues 148-299) (P. falciparum (field isolate Lek174))",
  "assay": "SPR",
  "data": [
    {"substance": "KIR2DS1 (SPR protein) (from UniProt Q14954) (receptor)", "values": [
      {"measurement": "Kd", "result": 1700, "unit": "nM"}
    ]},
    {"substance": "KIR2DL1 (residues 27-221) (from UniProt P43626 27-221) (domain or fragment)", "values": [
      {"measurement": "Kd", "result": 500, "unit": "nM"}
    ]}
  ]
}
